Reference: patent US20100003195A1

How the values were obtained:
[1] = molecular target: KDR on KDR-transfected 293H cells (human) (UniProt P35968); assay: scrambled-peptide microbubbles (Example 35) on KDR-transfected 293H cells, microscopy
[2] = molecular target: KDR on KDR-transfected 293H cells (human) (UniProt P35968); assay: scrambled-peptide microbubbles (Example 36) on KDR-transfected 293H cells, microscopy
[3] = molecular target: KDR on KDR-transfected 293H cells (human) (UniProt P35968); assay: scrambled-peptide microballoons (Example 37) on KDR-transfected 293H cells, microscopy

coverage % of the imaged surface [1]: 2.1%
coverage % of the imaged surface [2]: 2.2%
coverage % of the imaged surface [3]: 0.1%
Substance: microvesicles conjugated to a scrambled control peptide
